B1: F269-3D12 anti-EGFRvIII monoclonal antibody (antibody, V domains shown)
VH: EVQLQQSGPELVKPGSSVRISCKASGYTFTDYNMDWVKQSHGKSLEWIGTINPNNGGTSYNQKFKGKATLTVDKSSSTAYMELRSLTSEDSAVYYCARVRQLGLWFAYWGQGTLVTVSA
VL: EIVLTQSPALMAASPGEKVTITCSVSSSISSSNLHWYQQKSETSPKPWIYGTSNLASGVPVRFSGSGSGTSYSLTISSMEAEDAATYYCQQWSSYPLTFGSGTKLEIK
notes: Mouse hybridoma IgG, tested as supernatant or Protein G purified mAb; also called 3D12-2
B2: F265-5B7 anti-EGFRvIII monoclonal antibody (antibody, V domains shown)
VH: QIQLVQSGPELKKPGETVMISCKASGYSFTNYGMNWVKQAPEKDLKWMGWINTYTGESRYVDEFKGRFAFSLETSVSIVYLKINNLKNEDMATYFCARGPNFDVWGTGTTVTVSS
VL: not shown
notes: Mouse hybridoma IgG, tested as supernatant or Protein G purified mAb; also called 5B7-2

What was measured:
[1] = molecular target: T1, recombinant human EGFRvIII protein, denatured (human, UniProt P00533 298-623); experiment: ELISA on coated denatured recombinant antigen; Exp 2, purified mAb 1 µg/ml
T1 construct: Same protein as m9 after denaturation (95 °C for 5 min in PBS with 40 mM DTT); also called EGFRvIII Denatured
Procedure: (§1) Pre- and post-immune sera titers of animals were assessed by ELISA on recombinant EGFRvIII protein. Unless otherwise stated, all incubations were performed at room temperature. Briefly, half-area 96-well plates (Costar #3690) were coated with 25 μl per well of immunogen at 5 μg/ml in PBS and incubated overnight at 4° C. Microplates were washed three times in PBS and blocked for 30 min with PBS containing 1% bovine serum albumin (BSA, Sigma Cat#A7030). Blocking buffer was removed and 25 μl of serial dilutions of sera samples were added. After a 2-h incubation, microplates were washed 4 times with PBS-TWEEN™ 20 0.05% and 25 μl of a 1/5,000 dilution of alkaline phosphatase conjugated F(ab′)′₂ goat anti-mouse IgG (H+L, #115-056-062, Jackson Immunoresearch, Cedarlane, Burlington, ON) in blocking buffer was added. After a 1-h incubation, microplates were washed 4 times and 25 μl of p-nitrophenyl phosphate (pNPP) substrate (Sigma-Aldrich Canada Co., Oakville, ON) at 1 mg/ml in carbonate buffer at pH 9.6 was added and further incubated for 30 min. Absorbance was read at 405 nm using a SpectraMax 340 PC plate reader (Molecular Devices, Sunnyvale, Calif.).
(§2) To evaluate if monoclonal antibodies bind to a conformational epitope, an ELISA analysis on native and denatured recombinant human wild-type EGFR and EGFRvIII proteins were performed. […] Antigens at 1-2 mg/ml were denatured by incubation at 95° C. for 5 min in PBS containing DTT at 40 mM final concentration. They were then incubated on ice for 5 min and diluted at their final coating concentration for ELISA purpose.
(§3) mAbs were purified using HiTrap ProteinG HP 1 mL columns GE Healthcare cat no. 17-0404-01 and desalted using Zeba-spin desalting columns 5 mL (Pierce) pre-equilibrated in PBS and filter sterilized through […] membrane (Millipore). The final concentration of the antibody solutions was determined using a Nano-drop 2000 (ThermoScientific), using IgG as sample type. ELISA was performed as described above (serum titer determination) using 25 μl of mAb supernatant (Exp 1) or purified mAb at 1 μg/ml (Exp 2).

[2] = molecular target: T2, recombinant human wild-type EGFR protein, denatured (human, UniProt P00533 25-645); experiment: as above
T2 construct: Same protein as m11 after denaturation (95 °C for 5 min in PBS with 40 mM DTT); also called EGFRwt Denatured
Procedure: as §1, §2, §3

[3] = molecular target: T3, EGFRvIII amino acid residues 15 to 37 with Ser15 to Ala mutation, yeast-displayed (human, not fully specified); experiment: flow cytometry on yeast displaying the Ala-mutated 15-37 fragment; normalized to Myc-tag; wild-type fragment = 100%
T3 construct: The entry already carries the mutation
T3 peptide: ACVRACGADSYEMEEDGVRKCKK
From the text: (§4) Assessment of the binding of anti-EGFRvIII monoclonal antibodies to the fusion proteins expressed on yeast cell surface was done by flow cytometry analysis. Yeast cells were labeled with both the anti-EGFRvIII monoclonal antibody and chicken anti-Myc antibody the latter being used to monitor the level of expression of the fusion protein. Following a wash step, binding of the primary antibodies is probed by a two-color indirect fluorescence labeling using a specific mouse and chicken secondary antibodies for each of the primary antibody respectively.
(§5) To further characterize mAb epitopes within the EGFRvIII 15-37 region, an alanine scan of this region was performed, and modified fragments were expressed at the surface of the yeast. […] The resulting DNAs were expressed at the surface of the yeast and each anti-EGFRvIII mAbs was tested on the corresponding yeast mutant strain by flow cytometry analysis. The original Ala19 and Ala22 were not mutated. Thus, this assay determined the contribution of each amino acid(s) in mAb binding in comparison to the original wild-type fragment (SEQ ID NO:5) which is attributed the value of 100%.

[4] = molecular target: T4, EGFRvIII amino acid residues 15 to 37 with Cys16 to Ala mutation, yeast-displayed (human, not fully specified); experiment: as above
T4 construct: The entry already carries the mutation
T4 peptide: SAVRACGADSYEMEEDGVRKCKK
From the text: as §4, §5

[5] = molecular target: T5, EGFRvIII amino acid residues 15 to 37 with Ser24 to Ala mutation, yeast-displayed (human, not fully specified); experiment: as above
T5 construct: The entry already carries the mutation
T5 peptide: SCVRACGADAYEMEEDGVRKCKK
From the text: as §4, §5

[6] = molecular target: T6, EGFRvIII amino acid residues 15 to 37 with Glu28 to Ala mutation, yeast-displayed (human, not fully specified); experiment: as above
T6 construct: The entry already carries the mutation
T6 peptide: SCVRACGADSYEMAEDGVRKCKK
From the text: as §4, §5

[7] = molecular target: T7, EGFRvIII amino acid residues 15 to 37 with Asp30 to Ala mutation, yeast-displayed (human, not fully specified); experiment: as above
T7 construct: The entry already carries the mutation
T7 peptide: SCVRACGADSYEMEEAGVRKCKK
From the text: as §4, §5

[8] = molecular target: T8, EGFRvIII amino acid residues 15 to 37 with Arg33 to Ala mutation, yeast-displayed (human, not fully specified); experiment: as above
T8 construct: The entry already carries the mutation
T8 peptide: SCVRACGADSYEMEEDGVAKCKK
From the text: as §4, §5

[9] = molecular target: T9, EGFRvIII amino acid residues 15 to 37 with Lys34 to Ala mutation, yeast-displayed (human, not fully specified); experiment: as above
T9 construct: The entry already carries the mutation
T9 peptide: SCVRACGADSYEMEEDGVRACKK
From the text: as §4, §5

[10] = molecular target: T10, EGFRvIII amino acid residues 15 to 37 with Lys36 to Ala mutation, yeast-displayed (human, not fully specified); experiment: as above
T10 construct: The entry already carries the mutation
T10 peptide: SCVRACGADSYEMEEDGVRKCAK
From the text: as §4, §5

[11] = molecular target: T11, EGFRvIII amino acid residues 15 to 37 with Lys37 to Ala mutation, yeast-displayed (human, not fully specified); experiment: as above
T11 construct: The entry already carries the mutation
T11 peptide: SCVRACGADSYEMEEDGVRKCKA
From the text: as §4, §5

| Binder | ELISA absorbance (405 nm) [1] [A405] | ELISA absorbance (405 nm) [2] [A405] | % of binding compared to the wild-type sequence [3] [%] | % of binding compared to the wild-type sequence [4] [%] | % of binding compared to the wild-type sequence [5] [%] | % of binding compared to the wild-type sequence [6] [%] | % of binding compared to the wild-type sequence [7] [%] | % of binding compared to the wild-type sequence [8] [%] | % of binding compared to the wild-type sequence [9] [%] | % of binding compared to the wild-type sequence [10] [%] | % of binding compared to the wild-type sequence [11] [%] |
| --- | --- | --- | --- | --- | --- | --- | --- | --- | --- | --- | --- |
| B1 | 0.517 | 0.001 | 90.2 | 171 | 233 | 71 | 78.5 | 22.1 | 137 | 95.1 | 162 |
| B2 | 0.623 | 0 | 91.6 | 240 | 230 | 78.5 | 106 | 95.8 | 193 | 87.2 | 143 |

Source: patent publication US20220323495A1 (NATIONAL RESEARCH COUNCIL OF CANADA, published 2022)
